Laboratory results taken from patent publication US20180280504A1, “GLYCAN-INTERACTING COMPOUNDS AND METHODS OF USE” (SIAMAB THERAPEUTICS, INC., priority 2014, published 2018).

Key:
[1] = system: COLO-205 Human Colon Adenocarcinoma Tumor Xenograft; test: COLO-205 xenograft model, clinical observations; assay type: in vivo, mouse; conditions: 5 mg/kg i.p. once weekly
Description: (§1) Animals were inoculated in the subcutaneous right flank with 5×10^6 colon adenocarcinoma tumor cells (COLO-205) in matrigel, mean tumor size was 175-225 mm^3 at study initiation. Animals were given either vehicle or one of the antibody drug conjugates (5 mg/kg) by intraperitoneal injection once weekly. Tumor volume and percent body weight change were determined once weekly until study termination. The study was terminated when the tumor in the vehicle control animal reached a mean tumor weight >1500 mm^3. SE refers to “standard error.”
Clinical observations of tumor shape, size and disposition were noted throughout the study.

[2] = COLO-205 xenograft model, percent body weight change; assay type: in vivo, mouse; conditions: 5 mg/kg i.p. once weekly
Source text: To evaluate antibody drug conjugates (ADCs) as single agents in an COLO-205 Colon AdenocarcinomaTumor Xonograft model, 40 athymic nude female mice age range 6-8 weeks were randomly separated into four separate groups, one vehicle control and three ADC treatments, then maintained individually with food/water ad libitum (see the following Table).
as §1

[3] = PAA-glycan ELISA, AcSTn-PAA; assay type: binding; conditions: 200 ng/well PAA antigen; 1:5 dilutions from 1 μM
Description: 18D2 and 18C7 antibodies were further characterized by ELISA comprising antigens other than BSM. ELISAs were carried out according to Example 2, with the exception that ELISA plates were coated with biotinylated polyacrylamide (PAA) particles comprising either AcSTn (AcSTn-PAA), GcSTn (GcSTn-PAA) or Tn (Tn-PAA) as antigens. These particles present the antigens in a multivalent format. Briefly, 96-well ELISA plates were coated with 200 ng/well of each PAA antigen and blocked with PBS with 1% OVA. Antibodies were serially diluted at 1:5 in PBS with 1% OVA using an initial concentration of 1 μM. After blocking, antibodies were added to the plates and plates were incubated for 1.5 hours at room temperature. Binding of anti-STn antibodies was detected using a goat anti-mouse IgG-HRP conjugated antibody (Jackson Immunoresearch Laboratories, West Grove, Pa.). The reaction was developed by addition of HRP substrate and hydrogen peroxide. The reaction was then stopped by the addition of sulfuric acid (1.6 M). Optical densities were measured at 490 nm. A dose-response curve was generated using readings at each concentration tested and a non-linear regression curve was generated with four-parameter modeling to determine EC50 values for each antibody.

Molecule	clinical observations of tumors and signs of illness [1]	body weight course after initial drop [2]	Percent Body Weight Change ([2]; study day 1)	Percent Body Weight Change ([2]; study day 5)	Percent Body Weight Change ([2]; study day 8)	Percent Body Weight Change ([2]; study day 10)	Percent Body Weight Change ([2]; study day 15)	Percent Body Weight Change ([2]; study day 19)	Percent Body Weight Change ([2]; study day 22)	EC50 [3]
S3F: 3F1 variable domains combined with IgG2a constant domains; heavy chain SEQ ID NO: 63, light chain SEQ ID NO: 64 (antibody) heavy: QVQLQQSDAELVKPGASVKISCKASGYTFTDHAIHWVKQKPEQGLDWIGYISPGNGDIKYNEKFKDKVTLTADKSSSTACMHLNSLTSEDSAVYFCKRSLLALDYWGQGTTLTVSSAKTTAPSVYPLAPVCGDTTGSSVTLGCLVKGYFPEPVTLTWNSGSLSSGVHTFPAVLQSDLYTLSSSVTVTSSTWPSQSITCNVAHPASSTKVDKKIEPRGPTIKPCPPCKCPAPNLLGGPSVFIFPPKIKDVLMISLSPIVTCVVVDVSEDDPDVQISWFVNNVEVHTAQTQTHREDYNSTLRVVSALPIQHQDWMSGKEFKCKVNNKDLPAPIERTISKPKGSVRAPQVYVLPPPEEEMTKKQVTLTCMVTDFMPEDIYVEWTNNGKTELNYKNTEPVLDSDGSYFMYSKLRVEKKNWVERNSYSCSVVHEGLHNHHTTKSFSRTPGK light: DIVMTQSHKFMSTSVGDRVSITCKASQDVGTNIAWYQQKPGRSPKVLIYSASTRHTGVPDRFTGSGSGTDFTLTISNVQSEDLTDYFCQQYSSFPLTFGVGTKLELKRADAAPTVSIFPPSSEQLTSGGASVVCFLNNFYPKDINVKWKIDGSERQNGVLNSWTDQDSKDSTYSMSSTLTLTKDEYERHNSYTCEATHKTSTSPIVKSFNRNEC	necrosing tumors ranging in severity from slight to severe	remained low	0%	1.18%	−5.01%	−2.53%	−5.22%	−1.33%	−0.91%	
18C7: anti-STn mouse monoclonal, IgG2c κ, from mouse #4436; VH SEQ ID NO: 4, VL SEQ ID NO: 5 (antibody, V domains shown) VH: QVTLKESGPGILQPSQTLSLTCSFSGFSLSTFGMGVGWIRQPSGKGLEWLAHIWWDDDKYYNPALKSRLTISKDTSKNQVFLKIANVDTADTATYYCARIAYYYGSERDYWGQGTTLTVSS VL: QIVLTQSPAIMSASPGEKVTMTCSASSSISYMHWYHQKPGTSPKRWIYDTSKLASGVPARFSGSGSGTSYSLTISSMEAEDAATYYCHQRSSYTFGGGTKLEIKR										4.1 nM
